Assay results published in patent publication US20170226193A1 (UNIVERSITY OF MASSACHUSETTS, published 2017).

T1: native OspA on Borrelia afzelii BO23 spirochetes (Borrelia afzelii BO23, UniProt P0A3N7 17-273)
T1 sequence: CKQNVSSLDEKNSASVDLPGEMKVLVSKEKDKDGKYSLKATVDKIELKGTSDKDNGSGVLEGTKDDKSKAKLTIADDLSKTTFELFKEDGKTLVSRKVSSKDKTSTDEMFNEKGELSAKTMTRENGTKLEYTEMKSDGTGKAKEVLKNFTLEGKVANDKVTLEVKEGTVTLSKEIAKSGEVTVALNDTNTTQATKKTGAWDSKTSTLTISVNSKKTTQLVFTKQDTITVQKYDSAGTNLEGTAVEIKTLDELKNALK

T2: recombinant OspA of Borrelia afzelii ACA-1 (OspA-afzelii) (Borrelia afzelii ACA-1, UniProt P0A3N7 17-273)
T2 construct: also called OspA B. afzelii; not shown: N-terminal GST tag (pGEX-4T-3) or His tag (pET45-His)
T2 sequence: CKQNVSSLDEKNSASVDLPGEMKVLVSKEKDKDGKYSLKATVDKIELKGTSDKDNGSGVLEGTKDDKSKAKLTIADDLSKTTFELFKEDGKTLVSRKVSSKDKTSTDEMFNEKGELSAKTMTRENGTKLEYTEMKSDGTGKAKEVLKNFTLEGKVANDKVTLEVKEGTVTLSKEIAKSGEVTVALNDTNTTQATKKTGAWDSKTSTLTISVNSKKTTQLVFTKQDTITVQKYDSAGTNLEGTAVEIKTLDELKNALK

T3: a.a. 71-273
T3 construct: not shown: N-terminal His tag and vector-derived linker of pET45-His
T3 chain: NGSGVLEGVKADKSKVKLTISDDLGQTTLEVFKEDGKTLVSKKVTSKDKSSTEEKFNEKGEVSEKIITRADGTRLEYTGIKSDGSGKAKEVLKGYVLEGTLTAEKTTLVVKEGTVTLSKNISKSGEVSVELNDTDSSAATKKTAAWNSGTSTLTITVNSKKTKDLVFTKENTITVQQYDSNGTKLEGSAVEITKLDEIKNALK

T4: a.a. 178-273
T4 construct: not shown: N-terminal His tag and vector-derived linker of pET45-His
T4 chain: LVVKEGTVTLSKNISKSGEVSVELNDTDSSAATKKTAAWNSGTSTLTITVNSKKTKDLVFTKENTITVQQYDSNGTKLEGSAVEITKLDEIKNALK

T5: a.a.18-141
T5 construct: not shown: N-terminal His tag and vector-derived linker of pET45-His
T5 chain: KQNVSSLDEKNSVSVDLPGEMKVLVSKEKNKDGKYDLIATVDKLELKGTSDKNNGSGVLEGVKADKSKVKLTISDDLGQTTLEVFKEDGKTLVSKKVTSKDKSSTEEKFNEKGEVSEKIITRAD

T6: a.a. 106-273
T6 construct: not shown: N-terminal His tag and vector-derived linker of pET45-His
T6 chain: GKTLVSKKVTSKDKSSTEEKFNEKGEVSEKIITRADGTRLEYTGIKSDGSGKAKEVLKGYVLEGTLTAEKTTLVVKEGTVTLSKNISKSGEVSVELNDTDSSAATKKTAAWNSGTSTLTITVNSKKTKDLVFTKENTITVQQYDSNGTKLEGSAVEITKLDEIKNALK

T7: a.a. 142-273
T7 construct: not shown: N-terminal His tag and vector-derived linker of pET45-His
T7 chain: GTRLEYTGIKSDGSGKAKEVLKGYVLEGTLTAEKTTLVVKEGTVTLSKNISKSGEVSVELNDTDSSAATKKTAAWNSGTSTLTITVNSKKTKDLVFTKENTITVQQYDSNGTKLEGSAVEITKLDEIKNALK

T8: a.a. 18-177
T8 construct: not shown: N-terminal His tag and vector-derived linker of pET45-His
T8 chain: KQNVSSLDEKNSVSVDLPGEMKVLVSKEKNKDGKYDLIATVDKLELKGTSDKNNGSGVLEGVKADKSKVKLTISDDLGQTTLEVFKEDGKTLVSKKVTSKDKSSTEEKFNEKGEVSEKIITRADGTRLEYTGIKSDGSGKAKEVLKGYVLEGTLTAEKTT

B1: anti-OspA antibody 221-7 (antibody, V domains shown)
VH: EVQLVQSGSEVKKPGESLKISCQVSGYSFTSYWIGWVRQMPGKGLERVGFIYPGDSDTRYSPSFQGQVTISADKSISTAYLQWSSLKASDTAMYYCARGILRYFDWFLDYWGQGTLVTVSS
VL: AIQLTQSPSSLSASVGDRVTITCRASQGISSGSAWYQQKPGKAPKLLIYDVSSLESGVPSRFSGSGSGTEFTLTISSLQPEDFATYYCQQFNSYLLTFGGGTKVEIK
notes: also called HuMab 221-7
B2: anti-OspA antibody 857-2 (antibody, V domains shown)
VH: EVQLVQSGEEVKKPGESLKISCKGSGYKFSSYWIGWVRQMPGKGLEWMGIIFPGDSDKRYSPSFQGQVTISADKSISTVYLQWSSLKASDTAMYYCARHITTHTYRGFFDFWGQGTLVTVSS
VL: AIQLTQSPSSLSASVGDRVTITCRASQDISSALAWYQQKPGKAPKLLIYDVSSLESGVPSRFSGSGSGTDFTLTISSLQPEDFATYYCQQFNGYPHRLTFGGGTKVEIK
notes: also called HuMab 857-2
B3: anti-OspA antibody 319-44 (antibody, V domains shown)
VH: EMQLVQSGAEVKKPGESLKISCKGSGYIFATYWIGWVRQMPGKGLEWMGIIYPNDSDTRYSPSFQGQVTISADKSINTAYLQWSSLKASDTAMYYCARTRWYFDLWGRGTLVTVSS
VL: not shown
notes: also called HuMab 319-44; 319-44 wild-type antibody
B4: anti-OspA antibody 212-55 (antibody, V domains shown)
VH: EVQLVESGGGLVQPGGSLRLSCAASGFTFRNYWMDWVRQAPGKGLEWVANIKQDGSVKYYVDSVEGRFTISRDNAKNSLFLQMNSLRAEDTAVYYCARDGYSGYDSVGFDIWGQGTMVTVSS
VL: EIVLTQSPGTLSLSPGERATLSCRASQSVSSSYLAWYQQKPGQAPRLLISDTSSRATGIPDRFSGSGSGTDFTLTISRLEPEDFAVYYCQQYGSSPYTFGQGTKLEIK
notes: also called HuMab 212-55

Columns and labels:
[1] = molecular target: native OspA on Borrelia garinii PBi spirochetes (Borrelia garinii PBi, UniProt Q09089 17-273); assay: cell-based or functional assay
[2] = molecular target: T1, native OspA on Borrelia afzelii BO23 …; assay: cell-based or functional assay
[3] = molecular target: native OspA on Borrelia burgdorferi B31 spirochetes (Borrelia burgdorferi B31, UniProt P0CL66 17-273); assay: cell-based or functional assay
[4] = molecular target: T9, recombinant OspA of Borrelia garinii PBi (OspA-garinii) (Borrelia garinii PBi, UniProt Q09089 17-273); assay: SPR, Biacore 3000; antibody amine-coupled on CM5 chip, OspA in solution
T9 construct: also called OspA B. garinii; not shown: N-terminal GST tag (pGEX-4T-3) or His tag (pET45-His)

[5] = molecular target: T10, recombinant OspA of Borrelia burgdorferi B31 (OspA-burgdorferi) (Borrelia burgdorferi B31, UniProt P0CL66 17-273); assay: as above
T10 construct: also called OspA B. burgdorferi; not shown: N-terminal GST tag (pGEX-4T-3) or His tag (pET45-His)

[6] = molecular target: T2, recombinant OspA of Borrelia afzelii …; assay: as above
Experimental: Biacore 3000 was used to determine the affinity of HuMabs to OspA-burgdorferi, OspA-garinii and OspA-afzelii. HuMabs was captured on the surface of a Biacore chip (GE healthcare) via amine coupling (Sensor Chip CM5). The captured Mabs were exposed to various concentrations of OspA in solution. The Kₒₙ and Koff for an affinity (KD) were calculated by BIAevaluation software.

a.a. 71-273 = molecular target: T3, a.a. 71-273; assay: ELISA on plate-coated OspA protein form [panel B]
a.a. 178-273 = molecular target: T4, a.a. 178-273; assay: ELISA on plate-coated OspA protein form [panel B]
a.a.18-141 = molecular target: T5, a.a.18-141; assay: ELISA on plate-coated OspA protein form [panel B]
a.a. 106-273 = molecular target: T6, a.a. 106-273; assay: ELISA on plate-coated OspA protein form [panel B]
[7] = molecular target: T11, OspA (a.a. 18-273) mutant with D249A and S250A point mutations, N-terminal His tag (Borrelia burgdorferi, UniProt P0CL66 18-273); assay: ELISA on plate-coated OspA protein form [panel B]
T11 construct: not shown: N-terminal His tag of the pET45 vector

a.a. 142-273 = molecular target: T7, a.a. 142-273; assay: ELISA on plate-coated OspA protein form [panel B]
a.a. 18-177 = molecular target: T8, a.a. 18-177; assay: ELISA on plate-coated OspA protein form [panel B]
[8] = molecular target: T9, recombinant OspA of Borrelia garinii …; assay: SPR, Biacore 3000
[9] = molecular target: T10, recombinant OspA of Borrelia …; assay: SPR, Biacore 3000
[10] = molecular target: T2, recombinant OspA of Borrelia afzelii …; assay: SPR, Biacore 3000

T9 sequence (Q09089 17-273 limits assumed): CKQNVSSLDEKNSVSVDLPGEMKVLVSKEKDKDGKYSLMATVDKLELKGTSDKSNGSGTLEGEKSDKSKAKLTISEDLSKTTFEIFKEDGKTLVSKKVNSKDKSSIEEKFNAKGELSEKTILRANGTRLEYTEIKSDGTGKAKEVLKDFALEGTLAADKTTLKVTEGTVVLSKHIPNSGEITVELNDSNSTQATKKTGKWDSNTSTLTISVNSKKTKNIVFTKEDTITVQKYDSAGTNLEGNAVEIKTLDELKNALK
Chain of native OspA on Borrelia garinii PBi spirochetes (Q09089 17-273 limits assumed): as above

Binder	Borreliacidal activity (EC50 (nM)) [1] [nM]	Borreliacidal activity (EC50 (nM)) [2] [nM]	Borreliacidal activity (EC50 (nM)) [3] [nM]	Kd [4] [nM]	Kd [5] [nM]	Kd [6] [nM]	binding result (a.a. 71-273)	binding result (a.a. 178-273)	binding result (a.a.18-141)	binding result (a.a. 106-273)	binding result [7]	binding result (a.a. 142-273)	binding result (a.a. 18-177)	Kd [8] [nM]	Kd [9] [nM]	Kd [10] [nM]
B1	6.6	0.9	< 0.4	1.3	0.66	7.8	binds	no binding	binds	no binding	binds	no binding	binds	≤ 36	≤ 22	≤ 36
B2	41.6	2	2	1	0.65	1.6	binds	no binding	binds	binds	binds	no binding	binds	≤ 36	≤ 22	≤ 36
B3	–	4	< 0.4	674	328	1200	binds	binds	no binding	binds	no binding	binds	no binding	–	–	–
B4	–	–	–	480	–	–	–	no binding	–	–	–	binds	–	–	–	–
